Experimental data taken from patent publication US20190389961A1 (INNATE PHARMA, published 2019).

T1: human CD39 mutant 5 (human, UniProt P49961 1-510)
T1 construct: Expressed on Hek-293T cells; also called M5
T1 chain: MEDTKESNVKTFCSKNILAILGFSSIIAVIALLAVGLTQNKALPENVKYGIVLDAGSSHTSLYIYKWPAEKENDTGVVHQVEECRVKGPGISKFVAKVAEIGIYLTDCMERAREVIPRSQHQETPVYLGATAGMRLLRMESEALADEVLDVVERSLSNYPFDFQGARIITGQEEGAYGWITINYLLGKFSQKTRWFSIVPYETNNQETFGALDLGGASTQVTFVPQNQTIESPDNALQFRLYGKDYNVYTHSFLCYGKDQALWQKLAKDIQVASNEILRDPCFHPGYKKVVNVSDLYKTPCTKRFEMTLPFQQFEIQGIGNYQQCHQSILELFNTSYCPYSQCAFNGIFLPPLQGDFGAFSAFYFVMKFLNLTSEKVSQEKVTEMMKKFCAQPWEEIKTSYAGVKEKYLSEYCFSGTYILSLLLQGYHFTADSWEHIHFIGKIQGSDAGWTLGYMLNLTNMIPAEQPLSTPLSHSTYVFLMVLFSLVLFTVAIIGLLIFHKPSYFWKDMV

T2: human CD39 mutant 11 (human, UniProt P49961 1-510)
T2 construct: Expressed on Hek-293T cells
T2 sequence: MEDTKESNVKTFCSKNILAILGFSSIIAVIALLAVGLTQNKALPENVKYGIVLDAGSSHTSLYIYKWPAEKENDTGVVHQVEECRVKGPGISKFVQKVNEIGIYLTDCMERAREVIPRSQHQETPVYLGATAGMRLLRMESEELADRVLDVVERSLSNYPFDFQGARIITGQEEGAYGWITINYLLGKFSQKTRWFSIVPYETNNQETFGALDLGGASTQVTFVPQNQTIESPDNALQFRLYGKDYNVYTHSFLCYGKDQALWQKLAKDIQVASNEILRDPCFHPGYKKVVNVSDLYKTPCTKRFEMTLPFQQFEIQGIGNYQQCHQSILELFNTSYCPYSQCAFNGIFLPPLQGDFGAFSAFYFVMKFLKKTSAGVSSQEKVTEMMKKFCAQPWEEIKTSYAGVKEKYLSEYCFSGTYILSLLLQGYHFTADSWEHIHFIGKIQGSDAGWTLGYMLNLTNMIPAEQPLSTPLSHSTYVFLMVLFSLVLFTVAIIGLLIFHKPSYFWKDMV

T3: human CD39 mutant 15 (human, UniProt P49961 1-510)
T3 construct: Expressed on Hek-293T cells; also called M15
T3 chain: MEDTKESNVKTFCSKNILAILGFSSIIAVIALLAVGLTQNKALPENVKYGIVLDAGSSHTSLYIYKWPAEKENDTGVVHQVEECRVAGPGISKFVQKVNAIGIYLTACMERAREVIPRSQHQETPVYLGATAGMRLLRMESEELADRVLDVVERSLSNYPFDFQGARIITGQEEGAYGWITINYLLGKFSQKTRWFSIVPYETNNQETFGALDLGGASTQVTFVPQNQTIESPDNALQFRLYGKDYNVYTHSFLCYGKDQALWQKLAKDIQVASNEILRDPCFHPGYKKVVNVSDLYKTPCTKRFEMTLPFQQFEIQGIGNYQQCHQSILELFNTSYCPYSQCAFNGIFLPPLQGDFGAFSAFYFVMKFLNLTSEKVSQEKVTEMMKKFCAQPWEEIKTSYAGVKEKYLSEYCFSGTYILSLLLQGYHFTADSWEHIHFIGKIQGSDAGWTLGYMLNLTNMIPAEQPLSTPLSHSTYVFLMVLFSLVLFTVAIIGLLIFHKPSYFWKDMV

T4: human CD39 mutant 19 (human, UniProt P49961 1-510)
T4 construct: Expressed on Hek-293T cells; also called M19
T4 chain: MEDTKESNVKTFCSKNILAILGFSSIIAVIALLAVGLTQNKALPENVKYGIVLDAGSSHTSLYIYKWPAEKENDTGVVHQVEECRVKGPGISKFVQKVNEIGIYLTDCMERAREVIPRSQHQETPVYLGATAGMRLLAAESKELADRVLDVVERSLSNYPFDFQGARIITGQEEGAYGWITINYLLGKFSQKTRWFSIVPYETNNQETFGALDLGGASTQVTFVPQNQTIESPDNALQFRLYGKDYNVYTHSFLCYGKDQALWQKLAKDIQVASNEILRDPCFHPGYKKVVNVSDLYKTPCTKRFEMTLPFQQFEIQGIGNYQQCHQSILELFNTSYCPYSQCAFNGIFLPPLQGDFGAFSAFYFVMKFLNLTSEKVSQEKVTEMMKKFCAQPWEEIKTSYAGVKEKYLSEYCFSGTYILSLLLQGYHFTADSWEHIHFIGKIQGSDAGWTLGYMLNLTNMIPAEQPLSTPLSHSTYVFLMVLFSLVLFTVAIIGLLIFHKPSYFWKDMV

T5: human CD39 (vascular CD39, NTPDase1) expressed at the surface of cells (human, UniProt P49961 1-510)
T5 construct: also called huCD39; CHO-huCD39
T5 sequence: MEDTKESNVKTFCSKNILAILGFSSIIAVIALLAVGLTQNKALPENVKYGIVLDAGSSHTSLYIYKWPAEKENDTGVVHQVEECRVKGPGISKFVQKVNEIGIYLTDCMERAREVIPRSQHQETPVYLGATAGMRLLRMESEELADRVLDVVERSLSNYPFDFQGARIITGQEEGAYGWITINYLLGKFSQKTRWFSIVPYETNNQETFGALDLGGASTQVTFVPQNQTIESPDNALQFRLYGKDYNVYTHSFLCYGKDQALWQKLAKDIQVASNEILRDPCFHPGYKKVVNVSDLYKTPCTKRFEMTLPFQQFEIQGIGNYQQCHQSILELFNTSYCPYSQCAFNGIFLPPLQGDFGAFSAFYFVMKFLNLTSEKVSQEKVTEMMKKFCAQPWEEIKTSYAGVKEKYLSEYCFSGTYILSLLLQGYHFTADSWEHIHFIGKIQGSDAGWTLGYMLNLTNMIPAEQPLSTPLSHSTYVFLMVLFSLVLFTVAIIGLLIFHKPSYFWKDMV


What was measured:
human CD39 mutant 5 [1] = target: T1, human CD39 mutant 5; test: flow cytometry, Hek-293T cells expressing the mutant
Description: (§1) In order to define the epitopes of the further anti-CD39 antibodies of Example 5, they were tested for loss of binding to the panel of CD39 mutants as described in Example 1 and Table 1. Mutants were transfected in Hek-293T cells, as shown in the table 1, using numbering of SEQ ID NO: 1.Dose-ranges of test antibodies (10-2.5-0.625-0.1563-0.0391-0.0098-0.0024-0.0006 μg/ml) are tested on the 20 generated mutants by flow cytometry.

human CD39 mutant 11 = target: T2, human CD39 mutant 11; test: as above
Description: as §1

human CD39 mutant 15 [2] = target: T3, human CD39 mutant 15; test: as above
Description: as §1

human CD39 mutant 19 [3] = target: T4, human CD39 mutant 19; test: as above
Description: as §1

human CD39 mutant 15 [4] = target: T3, human CD39 mutant 15; test: flow cytometry on Hek-293T cells expressing CD39 mutant 15 (panel M15)
Description: as §1

human CD39 mutant 5 [5] = target: T1, human CD39 mutant 5; test: flow cytometry on Hek-293T cells expressing CD39 mutant 5 (panel M5); unstained (US) median 8,98; antibody concentration not shown
Description: (§2) Mutants were transfected in Hek-293T cells, as shown in the table 1, using numbering of SEQ ID NO: 1. […] Mutant 19 includes substitutions at residues R138, M139 and E142.
as §1

[6] = target: T5, human CD39 (vascular CD39, NTPDase1) …; test: flow cytometry on Hek-293T cells expressing wild-type CD39 (panel WT); unstained (US) median 10,3; antibody concentration not shown
Description: as §2, §1

human CD39 mutant 15 [7] = target: T3, human CD39 mutant 15; test: flow cytometry on Hek-293T cells expressing CD39 mutant 15 (panel M15); unstained (US) median 8,98; antibody concentration not shown
Description: as §2, §1

human CD39 mutant 19 [8] = target: T4, human CD39 mutant 19; test: flow cytometry on Hek-293T cells expressing CD39 mutant 19 (panel M19); unstained (US) median 8,98; antibody concentration not shown
Description: as §2, §1

human CD39 mutant 5 [9] = target: T1, human CD39 mutant 5; test: flow cytometry on Hek-293T cells expressing CD39 mutant 5 (panel M5)
Description: as §1

human CD39 mutant 19 [10] = target: T4, human CD39 mutant 19; test: flow cytometry on Hek-293T cells expressing CD39 mutant 19 (panel M19)
Description: as §2, §1

| binding result (human CD39 mutant 5 [1]) | binding result (human CD39 mutant 15 [2]) | binding result (human CD39 mutant 19 [3]) | binding result (human CD39 mutant 15 [4]) | Median : Comp-Alexa Fluor 647-A (human CD39 mutant 5 [5]) | Median : Comp-Alexa Fluor 647-A [6] | Median : Comp-Alexa Fluor 647-A (human CD39 mutant 15 [7]) | Median : Comp-Alexa Fluor 647-A (human CD39 mutant 19 [8]) | binding result (human CD39 mutant 5 [9]) | binding result (human CD39 mutant 19 [10]) | Binder | binding result (human CD39 mutant 11) |
| --- | --- | --- | --- | --- | --- | --- | --- | --- | --- | --- | --- |
| binds | binds | binds |  |  |  |  |  |  |  | antibody I-399 (antibody, V domains shown) VH: PVQLQQPGAEVVMPGASVKLSCKASGYTFTSFWMNWMRQRPGQGLEWIGEIDPSDFYTNSNQRFKGKATLTVDKSSSTAYMQLSSLTSEDSAVYFCARGDFGWYFDVWGTGTSVTVSS VL: EIVLTQSPTTMTSSPGEKITFTCSASSSINSNYLHWYQQKPGFSPKLLIYRTSNLASGVPTRFSGSGSGTSYSLTIGTMEAEDVATYYCQQGSSLPRTFGGGTKLEIK | no binding (tested: dose range up to 10 µg/ml) |
|  |  |  | no binding | 8190 | 4340 | 35.9 | 8890 |  |  | antibody I-396 (antibody, V domains shown) VH: EVQLQQSGAELVKPGASVKLSCIVSGFNIKDTYINWVKQRPEQGLEWIGRIDPANGNTKYDPKFQGKATMTSDTSSNTAYLHLSSLTSDDSAVYYCARWGYDDEEADYFDSWGQGTTLTVSS VL: not shown |  |
|  |  |  |  | 52.6 | 4240 | 5750 | 15.4 | no binding | no binding | antibody I-395 (antibody, V domains shown) VH: EVQLQQSGPELVKPGASVRMSCKASGYTFTDYNMHWVKKNHGKGLEWIGYINPNNGGTTYNQKFKGKATLTVNTSSKTAYMELRSLTSEDSAVYYCTRGGTRFASWGQGTLVTVSA VL: not shown |  |
